# B1: MBP-Vpu full length (HIV-1 Vpu fused to maltose binding protein) (natural protein)
# chain: MQPIPIVAIVALVVAIIIAIVVWSIVIIEYRKILRQRKIDRLIDRLIERAEDSGNESEGEISALVEMGVEMGHHAPWDVDDL
# Target: the molecule itself
# Assay: cryo-EM structure
protein,measurement,value
B1,stoichiometry N,6

# Reference: publication PMC10197565 (bioRxiv, 2023)
